In one test the target is cathepsin L. In words: Enzymatic inhibitory activity against cathepsin L (kinetic analysis, Z-Phe-Arg-AMC substrate). It is filed as biochemical. As for the experimental part: (§1) The inhibitory activity of Elstatin (polypeptide of the present invention) against papain and cathepsin L was measured by the method of Barrett, A. J. and Kirschke, H. described in Method Enzymol., 80, 535-561 (1981) using Bz--DL--Arg-2-naphthylamide or Z--Phe--Arg--MCA as a substrate (Bz, Z and AMC represent benzoyl, benzyloxycarbonyl, and 4-methyl-7-coumarylamide).
(§2) The active site of the enzyme was titrated using a cysteine protease inhibitor Ep-475 (L-3-carboxy-trans-2,3-epoxypropyl-leucylamide-(3-guanizino)butane). Papain which had undergone the titration of active site was used to determine the molarity of the inhibitor (Turk, B. et al. J. Biol. Chem. 268, 7323-7329 (1993)).
(§3) The rate of the reaction employing Z--Phe--Arg--AMC as a substrate was determined by the kinetic analysis of Elstatin, papain, and cathepsin L. Different concentrations of Elstatin and a substrate (papain: 5 μM, cathepsin L: 10 μM) were dissolved in 1.97 ml of a buffer solution described above. In the measurement of cathepsin L, 0.34M acetate buffer (pH 5.5) containing 2 mM dithiothreitol and 1.5 mM EDTA was used. The reaction was started by the addition of 30 μl of activated papain (final concentration: 380 pM) and cathepsin L (final concentration: 60 pM). […] The obtained data were analysed by a non-linear regression analysis of Morrison (Trends Biochem. Sci. 7, 102-105 (1982)).

The next test has as its target cathepsin H. In words: Enzymatic inhibitory activity against cathepsin H (stopped assay). The class given is biochemical. Conditions: cathepsin H 25 nM, Elstatin 50-750 nM, pH 6.0, 25° 20 minutes, Bz-DL-Arg-2-naphthylamide. The protocol: (§4) Equilibrium dissociation constant (Ki) of Elstatin and cathepsin B and H was determined using stopped assay method. In detail, cathepsin B (final concentration: 130 nM) and cathepsin H (final concentration: 25 nM) were incubated together with different concentrations of Elstatin (final concentration: 50-750 nM) in 0.1M phosphate buffer (pH 6.0) containing 2 mM of dithiothreitol and 1.5 mM of EDTA at 25° for 20 minutes. The residual activity was determined using Bz--DL--Arg-2-naphthylamide as a substrate conditions identical to those according to Barrett, A. J. and Kirschke, H. mentioned above. The value Ki was calculated using a method of Henderson (Biochem. J. 127, 321-333 (1972)).

Test [1] concerns unfractionated bone cells (osteoclastic bone resorption). In words: Bone resorption inhibitory action (pit formation on ivory slices, parathyroid hormone induced). Conditions: 50 nM human parathyroid hormone, 72 hours, FIG. 1. The class given is cell-based, Sprague-Dawley rats. The protocol:
A method proposed by McSheehy, P. M. J. and Chambers, T. J. in J Clin. Invest., 80, 425-429 (1987) was partly modified and applied.
Unfractionated bone cells were prepared from tibiae, femora and humeri of 1 to 2 day-old Sprague-Dawley rats. The bones were dissected into soft tissues in an ice-cold medium (pH 7.2) [α-minimum essential medium (α-MEM) (Flow Laboratories, McLean, Va.), supplemented with 100 IU/ml of benzylpenicillin] containing 20 mM N-2-hydroxyethyl-piperazine-N'-ethanesulfonic acid (HEPES). In order to prepare a bone cell preparation, long bones were minced with a pair of scissors in the same medium. Subsequently, the cell suspension was triturated with a wide bored plastic pipette. 200 μl of cell suspension (1×10^6 cells/ml) was added to each well of a 96 well-plate containing an ivory slice (thickness: 150 μm, diameter: 6 mm; ultrasonicated and disinfected with 75% ethanol), and the cells were incubated at 37° C. for 2 hours in a CO2 incubator (5% CO2 : 95% air). The slices were washed with α-MEM, and transferred to a HEPES-free fresh medium containing 10% FBS, each of test samples of various concentrations and 50 nM of human parathyroid hormone (Peninsula Laboratories Inc., Belmond, Calif.) and incubated for 72 hours. […] The total area of pits was measured under a microscope to detect possible osteoclastic bone resorption.

The next test deals with cathepsin B. In words: Enzymatic inhibitory activity against cathepsin B (stopped assay). It is filed as biochemical. The note with it: cathepsin B 130 nM, Elstatin 50-750 nM, pH 6.0, 25° 20 minutes, Bz-DL-Arg-2-naphthylamide. The protocol: as §4
In a further test the target is papain. In words: Enzymatic inhibitory activity against papain (kinetic analysis, Z-Phe-Arg-AMC substrate). The class given is biochemical. Conditions: papain 380 pM, substrate Z-Phe-Arg-AMC 5 μM, 0.1M phosphate buffer pH 6.0. The protocol: as §1, §2, §3

A word on the Ki: it is a dissociation constant, usually derived from enzyme kinetics or from competition with a known ligand.

B1: Elstatin: Novel 103-residue polypeptide (Sequence No. 1) isolated from pig leucocyte cytosol; specifically inhibits cathepsin L (protein)
chain: MESEEMLAGGLTEPRPATPEIQEIANKVKPQLEEKTNKTYEKFEAIIYRSQVVAGTNYYIKVHVGGNNYVHIRVFQSLPHQEDPLKLIGYQVDKTKDDELTGF
As to B1, the Ki at cathepsin L (cathepsin L 60 pM, substrate Z-Phe-Arg-AMC 10 μM, 0.34M acetate buffer pH 5.5) came to 0.067 ± 0.036 nM; at cathepsin H, 125 ± 7 nM; at cathepsin B, 335 ± 50 nM; at papain, 0.19 ± 0.097 nM. Moreover, the “Specificity of inhibition among the cathepsin group” value with cathepsin L (cathepsin L versus cathepsins B and H) is “specifically inhibits only cathepsin L among the members of the cathepsin group”. Further, the “Bone resorption inhibitory action (total area of pits)” value in test [1] was “significantly potent bone resorption inhibitory action”.

These data come from US5698519A, “Polypeptide specifically inhibiting cathepsin L” (Taiho Pharmaceutical Co., Ltd., priority 1993, dated 1997).
